Source: patent US20090053227A1

Target: Kv3.2a (potassium channel Kv3.2a, KCNC2 transcript variant 1) (human) (UniProt Q96PR1)
Experiment: flow cytometry on unpermeabilized Kv3.2a-CHO 1A5 cells

UniProt Q96PR1, sequence (Q96PR1 other isoform, or with tags, fused parts or gaps mutant): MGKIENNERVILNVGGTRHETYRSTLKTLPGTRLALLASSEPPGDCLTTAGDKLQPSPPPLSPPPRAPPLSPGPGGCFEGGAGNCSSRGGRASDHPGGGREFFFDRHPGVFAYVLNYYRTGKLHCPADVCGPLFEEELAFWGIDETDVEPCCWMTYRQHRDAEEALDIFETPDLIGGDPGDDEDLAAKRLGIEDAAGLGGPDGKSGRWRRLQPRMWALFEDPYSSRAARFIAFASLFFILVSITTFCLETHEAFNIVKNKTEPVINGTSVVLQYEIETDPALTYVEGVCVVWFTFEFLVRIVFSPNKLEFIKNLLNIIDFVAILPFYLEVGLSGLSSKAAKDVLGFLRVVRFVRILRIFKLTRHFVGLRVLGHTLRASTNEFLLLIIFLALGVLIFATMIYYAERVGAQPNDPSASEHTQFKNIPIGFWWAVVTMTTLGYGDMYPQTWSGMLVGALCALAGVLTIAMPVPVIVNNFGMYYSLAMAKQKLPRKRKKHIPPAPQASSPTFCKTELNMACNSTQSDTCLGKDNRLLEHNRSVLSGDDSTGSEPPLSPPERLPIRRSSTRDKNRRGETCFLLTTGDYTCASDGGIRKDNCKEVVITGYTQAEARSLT

percentage shift into gate: 0.01%
Substance: Neg control
